Assay results taken from the DeepSol protein solubility set.

Assay: soluble on expression in E. coli; label from the status in PepcDB or PDB records

Sequence	soluble on expression in E. coli
MAHHHHHHMCVSVCACARPCSLLISLFEKRQHGWGCCNSFTFEHVCSADAVRCLFFFVCDSPSSSLPPSLFTRHSPLLFSSCPFACPSSVHPQRQDNTRRRAEQPCAQALWIRRGINRIGNLLVPNDNYCWFEDFFTPVLESVQEAQRASRWKTHTAPSEFIEAMGAAIAKNHPDTCTSSLVYWCYRNGISVFSPAFTDGSMGDMIYFYNFSHKGLVVDPLEDVVRLRKLAAKEKGRNLAIVLGGGLPKHHLLRNVSMDAVVMVTTGLEADGCVSSGVLADDVACGLLREETETVRVQGDATVVFPLMLIAEKAATLEGAAA	not soluble
MAHHHHHHMDAAWEAHIRLDPATDAAMRSNSGSRANSGGAGTPPVTLAPPEHPFNVMSFNTASAGCSIAHCGFLRGREEDFLREVVQRLQPSSSPSAARHLLYVITSANDVYVVDVKTEVVFLHWAGGASTSGCSSSSSEASASPLGAQFIVTQAETYGALMYLTVARRSSVKTATEQAASRGCHLFSGGGGPERNVYQRCNDPAVYVLHLGCTKPLAASTTKAFIAGGGAYVIQAVSKDKPHPTSKHSRSNAASATASAGALSIRAPSVGASAATAAERIGSAGVCRRRRRWGGDPEEGAADLLRCQRTPRPQPVIDAQFVPSAAVLVPCHGAGHSSSSCKWICRNVQILLVTPTRQQLLCTAGRRRNGRREQRGPL	not soluble
MAHHHHHHMDEFRPDDTTQIEEGSESNAALLQLQDALVSALTASGTLGKIRAQLRATALALIRGDDELQNAAVGPFIRPRTLTTHAKVSLLLLHDFLQHYHLQQTAGVLDVESSVHLLFNERSVLLGDLARLPGDGSLLERLVRLYEPTRQIPAVGPSGATAVTTASQTSVSIPAAKLPASPVASSSSSASQEQTVAMAQPQDADVQYELDAYEDSIPFSDTEGTIDGNVHCDEVERLTQ	not soluble
MAHHHHHHMDKQAERGQSAGPVKTPQGTQPPAHNYTYHTNAAQRAVYDYLKNVKPIPELAEPKTYKTYEEASVEAVLYPIIEKHQVIMVAGAFFGDEGKGKTVNAVANHPGCTFIARVNSGENAGHTVYDDAGRKFVFNLAPSGLLSKGKRNYVGPECVMDPISFMENEVKQLIEANVPYKEQLFIGNVSIVTPYHKLLDLLASAPNSSTLKGMAPIHASKVTKRGIRLDHIFNDQSVLRSRLRKDIDTYFGFLKVKGLSDADVLRRCEKENGDGVVRVPPYVVEFVQAEDKVEYLVKLYMDRVRNNKNFPARCDVAHELRSALSRGEKVMLEGPQSYWLSNAREKFWESTTSADTTASGLLATAQYNFQLYSSVVINVHKAPGSSRVGVGANPSSFVAQDYFSATGVKTLRDLPENMCVDFDSIQKLFFTKAFHPETKEYNGIWEPLEFEDSTGKYNIGVAMAVASSRQHGECGAVTKKPRVCGFFDCVLQYEVNAVQGPYLSISALDRGDDYDKLGVTIAYVYYNGKNDEVLNINGREYKNGDIIKAGEAVPGEVALYYCHPIVKLINGWKQTPIAASKRKPGDPLPRGVCEFLSTVEYFTKAKIISIGNGPRGKDIIYIKQ	not soluble
MAHHHHHHMDPSVSLEGIVDLTASNFDEHVGKGVPALVEFYAPWCGHCKKMVPEFEKVGQAVKTARDKVLVGKVDATQNRDLAERFGVNGYPTILFFPADSQTKQQYSEAREAAAFLSFLNRQVPGLNIGVPHEHTYAVELTKRNFDAVVMDEAKDALVMFYAPWCGHCKKLHPVFERLATAFKEEADIVIGKLNADDASNGAVRNRYKVDGYPTLAFFQKRSKSEPQYYSGGRSLEELVEYVNERTGKNRLPSGDLSEKVGVNDELSKVLRDMMLKEKSVDEKKQYLEKVKKAAADLTGVEAVHYPRIAEKILQLGAEYVEMELGRIARLKQGDVKGEKRDMLTIRNNILASLKDE	not soluble
MAHHHHHHMEDAQSGRASFSLRVPLCELLPKDSSLTDSPQNAVNLLYTICFSNTELKLRMKVTNTSEEQSAPFQFAFHTYFAVSDVSRTVVSGVNRSPFVDNCKARGNPDAPPSPPEQLWIIRGEHDRVYPDQACAIVLQDMGAKTTLQISSPNLSDVCLWNPGESKCAAMKDMPPDGYKHFVCVEHGKMLKKVVVPPCSSWTGTQEIAIIAESPHESSI	not soluble
MAHHHHHHMEGEEKVELSQLELKLEELQVIWEDVQATCPATHSSKRRNSSDAVASPPRVRSTSGAAQRQGANTQEPLQLPSPQSKHPSLRLLHANNKGKLRCTNPVASEGAVLGGIVSVSPPHSPANASVGACPHGRDGGVRNCVPSRLPPLDASHAQELLKACSNCGVEQRRPTAQFCWNCGTRI	not soluble
MAHHHHHHMELPFQWDDGNFISPFLTSGDDTLRVLAAWLNDSPLLRFQHGGALRLTDLGCGDGSALLSLSAGLFTLWGASGCRDVSPLQLTAVGLDLDEELILAARRRAEAIIVPPPHRLHCVFETVDVRQLDAAQYFPLSESSRHVLFVYLLPEGLEAIREKLLEIISRVALLVSNRWEVPFLARWKRVKLQNLHLYQYVGDGAN	not soluble
MAHHHHHHMENKENLRNQQEFNQLCRILRLVEGDPGQVVKEPPNLGILIEVLQKMVKATFVKESSYQEAVDAREKWKSTDSTVETKNIMDKQRADDLVRYKITHEKLKKLLAKAKMLVSRIKEERYLAYVSRNAALEKMAKVVYGSSAEKMFRNETEFEKFLANSQGTIVGKTAKETCGMSNDKMKNVSFAGYSLVGDFFCLCVGENNNATLCDKSFSGPREEHKWTKVMFEDKLVDFAAGWFKIRGLCYVNATSGIKDVVTPENISTEIVAFNKMLGRQRDDVQIYRREAESYRQYILGRVEQVGFTDSAICTGEHQHMCVNYAQCLVSNKGIPWQLKLMEAEEDLEDVEKHNMEVHVLIGRLDKLIEKIKKAAEQLSQEMEGIDVAVEKVQLLEEEIEENETTGKSEATAGEFNDNAQPEEGSLDKCEYWGMFSILFGVVAFSLV	not soluble
MAHHHHHHMESLDERWNNQVDNFHIKVNKLRCDMNEYKKGCYNTYNLRNNKNDVFPHLQNNNMKRRELINMNNNYEIKNYLKKPHNQTYILKDNKYVNVDDITFPVSKNISNKVIKTNDEKILENKCCFKLNVRNKRKNEKVIKINEKRWLIATKHVKIERVNKNGVEQSEEKNKKDKNRYIYLEGEEGNLHLYPMYSDSEVGFENISHIEDESLSKVKKENQDDDDIMTTKHLAQWSSDIVHKYLEEAIEKSKSIFQNCNMESRQEEIFKRIKL	not soluble
MAHHHHHHMESPEADEAFSKSLDAKVDDLFARIPLPQDPMKVALALTDEEAREEAATELVKEAVREMYWRKLGAKQAEELRLKKAQEKLQKQGAIQYFEERREEERLREHENTQFAAQPLAVEPQSPVGKGVTASPLQNLDSTLSAEELRKELAAMKANVSRLEELLRYKT	soluble
MAHHHHHHMEYDKEKMESLVSKVKEKFGKKVEIVNLKLDVKMPLFEIFLQASIHTQIKIFYARGRTLQYRLPPVFWTRCKILKENKILQEKYGGECAPGLFPQYDEYNIMQIMTECVYNDKYNFYVYDVNLEWENLCALTPENRELRKIVHQNVHVPTRLAVIKAFEQGVEDFRDVIREEYLIMLREQRKLKENKKYKF	not soluble
MAHHHHHHMFHGFPQVQVVSDDAPTGESIFAKDSDSHVELPPAKKVRISFPALTHLGSFSQDATCHSAVGGRLCGVQQGDTILITSVLPSLGASGDAEDERDDTAESKQQQKMYEKVKEMLRKECLDSYSVGYFIVSSACVNDPYSVVTADRLANLAIDGHPSVLLVYDPFRTGLMGKLYLRAFVPTDAFLDFSRKNKKTKKTDKKSGMQEEARLLRACSVPKQGVLREVKVEVEVDAYQLFCLNGIDIAPLPSNSTVHHSDSMADYKVALLESVQRNLSDLEGKLSRETSRNQRDENNVPPARGVDTMLALVQLREQAQHLEALCDGTLLISSLLRDL	not soluble
MAHHHHHHMFNYRREVLLDLWRKMPEAAACETVAPPEAVKGEEKRQQSVVKTQLDWLSEELKLSSSIIQSDYKVYAAFVHRRWVFMQLRRLAESALGNVGKRSKPAAPAGCQLGECAAAGEFDLPEEVLFWAKALLKEKRQGDALLAMDERNFHAWEFRRWVMYQLGQMEDLFVQSSIQFGPAVVGIKEREFASYMNGSAKSDRPRDLFFTPTEVKELNFTSAAVRRNFSNYSAWHQRGFIMQGALRRLQQRQWREEEADNNLRDGMLSQAWGQLEEDLTLLTTAIYCDPLDQSAWYYAKFLIHASKQLTALPFASTAVPIDITAKLDEVCLDLVGEERRLGEDMETYWPYLHLATSLLTSIKKSNDGNSSDVISDRQSALKLAREVWAALQPQGRHVNGDDDCIKCLQELCAHLTTADPLRAGMYKYFLSEVTTA	not soluble
MAHHHHHHMFRFCGRRLVARTLPLLADYQELPEAFEFMEHKVADKDIHSAYENMETLRLTVTRQDEFLFKETPVKCVTIVGVNGECGVYPGHAYEITQLTPAPLTVEMPDGTVKKFFTSGGFAHINNEGSCDINCVECIPLTELDVDAAEKALAQQQSALNSAHDDKARAVIEIRIGVLESVIQSLKHA	not soluble
MAHHHHHHMFTKFLSRVKAMPPRSGDWANKLGPVALMGCSVGAHMSSTKLLNHFYTSSRDCDMYAELTFHEPGPVECPPETVIFFPVIQCGEMLDEKGEPSEATKDDWYLAMTESTTELLEKGYVPVSVGGDGSATLAMVEAYKRLFRSSEVVLIHCSARPSLEKAEQPIRVLLEKDLLKGVVEIGNRCVSSGDRKIRKQHKVMYMDMQAIYAKGLFCIRDIRNDYPVFLSIDADVLDPAFAPGVESPVPGGFSTRDLLHIMTGIRGPKVAGIDIHGYHPSLDMCRSDGVGLTQMALTKVLKESIVKAYTISTQTAEEGLERVRLMQRQGTLSDNPYPDH	not soluble
MAHHHHHHMGCSASKDTTNSKDGAASKGGKDGKTTADRKVAWERIRCAIPRDKDAESKSRRIELFKRFDTNGTGKLSFREVLDGCYSILKLDEFTTHLPGIVQRAFDKAKDLGNKVKGVGEEDLVEFLEFRLMLCYIYDIFELTVMFDTMDKDGSLLIELQEFKEALPKLKEWGVDITDATTVFNEIDTNGSGVVTFDEFSCWAVTKKLQVCGDPDGEGAAKTTADRKVAWERIRCAIPRDKDAESKSRRIELFKQFDTNGTGKLGFREVLDGCYSVLKLDEFTTHLPDIVQRAFDKAKDLGNRVKGVGEEDLVEFLEFRLMLCYIYDIFELTVMFDTMDKDGSLLLELQEFKEALPKLKEWGVDITDATTVFNEIDTNGSGVVTFDEFSCWAVTKKLQVCGDPDGEENGANEGN	soluble
MAHHHHHHMGKKKVGEIQRSEDFCIPAGDRDANSALPAEEWPLLLKNYDKMNVRSTHFTLLECGWSPLRRPLAEYIKYGMINMDKPSNPSSHEVVSWIKRILKCDKTGHAGTLDPKVTGALIICTDRATRLVKSQQNAGKTYIGVLRLHDTVSQKKVDAALQRLTGPCFQRPPLIAAVKRQLRIRNIYSNQLIEYDKHRHLAVFETHCEAGTYIRTLCVHVGLILGAGGHMEELRRIRTGVITENDHLSTMHDVMDAQWLYENEKDDTYLRRVILPCEYLLSNHKRIVVKDSAVNAVCYGAKLMIPGLARFDNGIERDDVVVLMTTKGEAIALAYAEMTTSQMASVDHGIVARSKRVIMDRDTYPRRWGLGPIAVKKRSMMKDGLLDKYGRPQSNTPSDWFYVDYGGVKTNAEGVQYGQAPSKVGGVKRQRVPDSDDD	not soluble
MAHHHHHHMGNTGVPSFVSTLGPPPPINLFKECQSPLTSGFSSWASFHWILLSDAFSHYYRPLECQTFYGCNFQKQLDAAANYNSFWPHHSRRLEAIRSNTPEQLCITSLHPPSRSPLTQQFPSGSFTQSPYGCRPRSLPCTAPQQWQMHRRSLQQGREHEAGRLLQQPLSFSLI	not soluble
